T1: hNectin-4-His (human Nectin-4 extracellular antigen) (Homo sapiens, UniProt Q96NY8)
T1 construct: made in house
T1 sequence (Q96NY8 with tags, fused parts or gaps): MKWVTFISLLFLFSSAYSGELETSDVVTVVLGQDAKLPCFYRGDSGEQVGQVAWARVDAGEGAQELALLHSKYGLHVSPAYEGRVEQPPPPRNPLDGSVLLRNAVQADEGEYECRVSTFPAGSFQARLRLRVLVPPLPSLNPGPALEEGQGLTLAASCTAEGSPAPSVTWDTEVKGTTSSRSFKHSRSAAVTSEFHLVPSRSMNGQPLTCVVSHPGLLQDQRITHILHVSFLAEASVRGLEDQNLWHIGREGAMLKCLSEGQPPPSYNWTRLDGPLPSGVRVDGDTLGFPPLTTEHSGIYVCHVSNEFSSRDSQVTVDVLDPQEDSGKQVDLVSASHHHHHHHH


Target: T1, hNectin-4-His (human Nectin-4 extracellular antigen)
Test: SPR (BIAcore) affinity assay
Format: binding
Settings: Table 13
Procedure: In this study, the affinity of the antibodies for the human Nectin-4 extracellular antigen was detected by surface plasmon resonance (SPR) technique (BIAcore: GE Healthcare, T200).
Capture was performed using a Protein A chip (Cat #29127556, GE Healthcare), and 5 µg/mL antibody dilutions (in HBS-EP+(10×): GE Healthcare, Cat #BR-1006-69, with a working concentration of 1×) were directed through the experimental flow channels (Fc2 and Fc4) at a flow rate of 10 μL/min for 10 s; then, the flow rate was adjusted to 30 μL/min, the hNectin-4-His dilutions at different concentrations (0 nM, 1.23 nM, 3.7 nM, 11.1 nM, 33.3 nM, and 100 nM) were sequentially added, and simultaneously directed through the surfaces of the experimental flow channels (Fc2 and Fc4) and reference flow channels (Fc1 and Fc3) with an association time of 120 s and a dissociation time of 180 s, and finally, the chip was regenerated in Glycine 1.5.

Row | Molecule | ka | kd
1 | 1G8-1G3: VH SEQ ID NO: 98 (antibody, V domains shown) VH: EVQLVESGGGLVQPGGSLRLSCAASGFNFGTYAMSWVRQAPGKGLEWVSRISGISAGTNYADSVKGRFTISRDNSKNTLYLQMNSLRAEDTAVYYCARQTEDRSYGYDLDYWGQGTLVTVSS | 471000 M⁻¹ s⁻¹ | 0.00141 s⁻¹
2 | 1G8-1E10: VH SEQ ID NO: 90 (antibody, V domains shown) VH: EVQLVESGGGLVQPGGSLRLSCAASGDSFSTYAMSWVRQAPGKGLEWVSRISGSGDGKDYADSVKGRFTISRDNSKNTLYLQMNSLRAEDTAVYYCARQTEDRSYGYDLDYWGQGTLVTVSS | 665000 M⁻¹ s⁻¹ | 0.00087 s⁻¹
3 | 1G8-2B3: VH SEQ ID NO: 109 (antibody, V domains shown) VH: EVQLVESGGGLVQPGGSLRLSCAASGYNFTTSAMSWVRQAPGKGLEWVSRIYQDSSTTDYADSVKGRFTISRDNSKNTLYLQMNSLRAEDTAVYYCARQTEDRSYGYDLDYWGQGTLVTVSS | 742000 M⁻¹ s⁻¹ | 0.00147 s⁻¹

— patent publication US20260144882A1, “ANTI-NECTIN-4 ANTIBODY DRUG CONJUGATE AND USE THEREOF” (Bio-Thera Solutions, Ltd., priority 2022, published 2026)
